Measurements as given in article PMC7935541.

Key:
[1] = molecular target: 1065 toxin (IPF_1065, RelE/ParE-like toxin), C-terminally His-tagged (Microcystis aeruginosa PCC 7806); test: SEC-MALS
[2] = molecular target: 1067 antitoxin (IPF_1067, ParD-like antitoxin), C-terminally His-tagged (Microcystis aeruginosa PCC 7806); test: […]; 20 mM HEPES pH 7.4, 150 mM NaCl, room temperature

Substance	stoichiometry N (antitoxin per toxin) [1]	stoichiometry N [2]
1067 antitoxin (IPF_1067), non-tagged, coexpressed with the 1065 toxin (natural protein)	2	–
1067 antitoxin (IPF_1067, ParD-like antitoxin), C-terminally His-tagged (natural protein)	–	2
